Source: the nanobody polyreactivity screen of Harvey et al. (2022)

Assay: yeast display, Sf9 membrane polyspecificity reagent, FACS + sequencing; frameworks hold sequencing errors
Procedure, shortened: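 Sorting gates, low and high (top ~1%), were placed on anti-HA fluorescence to track expression and on streptavidin fluorescence to track reagent binding. A clone's polyreactivity label is taken from the gate it came out of. The reagent was 10% biotinylated, detergent-solubilized Sf9 membrane, applied for 1 hour at 4 °C to galactose-induced yeast display cells.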

Sequence	polyreactivity (PSR sort gate)
QVQLVDSGGGLVQAGASLRLSCAASGSTFSSNVMGWYRQAPGKERELVAAITKTGGLTYYADSVKGRFTISRDNAKNTVYLNMNSLKPEDTSVYYCAAKSKRRGTTSVYYYWGQGTQVTVSS	high polyreactivity
QVQLVDSGGGLVQAGGILRLSCASSGITFPGYDMGWYRQAPGKERDLVARISRSGGSTYYADSVKGRFTISRDNAKNTVYLQMNSLKPEETAVYYCAAGAYRSGGYRFDYWGQGTQVTVSS	low polyreactivity
QVQLVDSGGGLVQAGGNLRLSCAPSGYTFGKYAMGWYRQAPGKERELVAGISSRGGSTYYADSVKGRFTISRDNAKNTVYFQMNSLKPEDTAVYYCAAVAYTGGPRKLGFYYWGQGTQVTVSS	high polyreactivity
QVQLVDSGGGLVQAGGRLRLSCAASGLIFSYYARGRYRQGPRKERELVPAISSGGRTSYADSVKGRFTISRDNEKNTVYLKMNSVKPEASAVYYCAAYPVYNRPGDYWGQGTQVTVSS	high polyreactivity
QVQLVDSGGGLVQAGGRLRLSRAASGSIFRRYPMGWYRQAPGKERELVAAISRNSGRTYYADSVKGRFTISRDNAKITDYLQMNSLKPEDTAVYYCNADTSLAANGKFDYWGQGTQGTVSS	high polyreactivity
QVQLVDSGGGLVQAGGSISLSCAPSGFTIVGNAMGWYRLAPGKERELVAAISSGDDTNDADSVKGRFTISRDNAKNTVYLQMYSLKPEDTAVYYCAAAYYYYVSGWFDYWGQGTQVTVSS	low polyreactivity
QVQLVDSGGGLVQAGGSLRIIRAASGSISGYNAMGWYRQAPGKERELVAAIYRSDGKDYADSVKGRFTISRDNAKNTVYLQMNSMIPEDTAVYYCIAVKWSVVGYVLGFYRDDYWGQGTQVTVSS	low polyreactivity
QVQLVDSGGGLVQAGGSLRISCAASGSTFSINTMGTYRQAPGKERELVAAITTRGSSTYYADSVKGRFTISRDNAKNTVYLKMNSLKPEDTAVYYFNAPYRVTGGRYRWYDYWGQATQVTVSS	high polyreactivity
QVQLVDSGGGLVQAGGSLRISCPASGRIIDLNARGWYRQAPGKERELVAAISYSGGRTFYADSVKGRFTISRDNAKNTVDLQMISLKPEVTAVYYCNVRRGDRFVRHDYWGQGSQVTVSS	low polyreactivity
QVQLVDSGGGLVQAGGSLRLICAASGITFYYYAMGWYRQAPGKERELVAAISSRGGSTYYADSVKGRFTISRDNAKNTVYLQMNSLKPEDTAVYYWAALYGVSEEDDYWGQGTQVTVSS	high polyreactivity
QVQLVDSGGGLVQAGGSLRLICAASGRTIDNYAMGWYRQAPGKERELVAVISRSGDRRYYPDSEKGRFTISRDNAKNTVYLPMKSLKPEDTAVYYCNAVYGRSIYDGLFYTYDYWGQCTQVTVSS	high polyreactivity
QVQLVDSGGGLVQAGGSLRLICAASGSIFGKNAMGWYRQAPGKERELVAAISKRGGTTYYADSVKGRFTISRDNAKNTFYLLMNSLKPEDTAVYYCAAYYYVHRSSHYLSPYDFWGQVTQVTVSS	high polyreactivity
QVQLVDSGGGLVQAGGSLRLRCAASGITYSYYTKGWYRQAPGKERDLVAGITRSGSTYYADSVKGRFTISRDNAYNTVYLQMNSLKPEDTAVYYCNARARGAYNRPNYPRYYYWGQGTQVTVSS	high polyreactivity
QVQLVDSGGGLVQAGGSLRLRCAASGRNFGTNAMGWYRPAPGKERELVATITRGGGNTYYADSVKGRFTISRDNAKNTVYLQMNSLKPEDTAVYYCAAGVIFYVGTRVYAYDYWGQGTQLTVSS	low polyreactivity
QVQLVDSGGGLVQAGGSLRLRSAASGFTFCTYDMGWYRQAPGKERELVAAIDSGGSTYYADSVKGRFTISRDNAKNNVYLQMNSLKPEDTAVYYCNKVVDYFWYVEYDYWGQVTQVTVSS	low polyreactivity
QVQLVDSGGGLVQAGGSLRLSCAASGFIFSDYAMGWYRQAPGKEREFVAAISSGGSTYYADSVKGRFTISRDNAKNTVYLQMNSLKPEDTAVYYCNALWYREMDYWGQGTQVTVSS	high polyreactivity
QVQLVDSGGGLVQAGGSLRLSCAASGFIFVDYVMGWSRQAPGKERELVAAITRGGSTNYADSVKGRFTISRDNAKNTVYLQMNSLKPEDTAVYYCAVRWYRKYNYWGQGTQVTVSS	high polyreactivity
QVQLVDSGGGLVQAGGSLRLSCAASGFTFYAYGRGWNRQAPGKERELVATITWCGGNTYYADSVKGRFTISRDNAKNTVYLQMNSLKPEDTAVYYCAARLPSPIRPSRGYYDYWGQGTQVTVSS	low polyreactivity
QVQLVDSGGGLVQAGGSLRLSCAASGFTSTRYSMGWYREAPGKERELVAAISYGGGDTYYADSVKGRFTISRDNPKNTVYLQMNSLKPEDTAVYYCNARGRDRKSERRAFDYWGQGTQVTVSS	high polyreactivity
QVQLVDSGGGLVQAGGSLRLSCAASGGTFTAYTMGWYRQAPGKERELVAAITGDTSTNYADSVKGRFTISRDNAKNTVYLQMNSLKPVDTAVYYCAADVPRSYWRGYDYWGQGTQVTVSS	low polyreactivity
QVQLVDSGGGLVQAGGSLRLSCAASGINFQGNAMGWYRQAPGKERELVASITAGGDTTYYADSVKGRFTISRDNAKNTVYLQMNSLKPEDTAVYYCAVDSWLDADDSYPDSILVDYWGQGTQVTVSS	low polyreactivity
